Data on 1 substance can be found in US20040224337.

In data set [1] the target is FAS (UniProt P25445).
Data set [2] concerns FASpTyr275 peptide (Biotin-KKEAY(PO3)DTLI-COOH).

Sequence of UniProt P25445 (P25445 26-335): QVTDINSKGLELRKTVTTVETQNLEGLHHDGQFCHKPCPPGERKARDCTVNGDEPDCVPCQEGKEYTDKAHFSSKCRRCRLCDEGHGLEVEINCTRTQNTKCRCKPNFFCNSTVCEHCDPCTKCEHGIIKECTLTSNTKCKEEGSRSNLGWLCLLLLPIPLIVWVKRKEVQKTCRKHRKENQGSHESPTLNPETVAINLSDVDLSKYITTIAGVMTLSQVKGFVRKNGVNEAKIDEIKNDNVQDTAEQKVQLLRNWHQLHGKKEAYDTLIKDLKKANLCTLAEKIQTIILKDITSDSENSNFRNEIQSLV

On to PTPL1/FAP-1, for which the “tyrosine phosphorylation of immunoprecipitated FAS (PY20-HRP blot after incubation in phosphatase reaction buffer)” value in data set [1] was “endogenous FAP-1 dephosphorylates FAS”. Besides, in data set [2], the “in vitro phosphatase assay (dephosphorylation relative to vector as percent activity)” value is given as “FAP-1 immunoprecipitated from overexpressing cells dephosphorylates the biotinylated phospho-peptide (FASpY275) in an in vitro phosphatase assay”.
